Results reported in paper PMC8219104 (2021).

Experiments:
[1] = target: T1, SARS-CoV-2 spike receptor-binding domain (RBD), amino acids 333 to 529, bacteria-expressed and refolded (SARS-CoV-2, UniProt P0DTC2 333-529); assay: SPR
[2] = target: T1, SARS-CoV-2 spike receptor-binding …; assay: SPR; remark: listed apart in the source

| Binder | koff [1] | Kd [2] |
| --- | --- | --- |
| Sybody Sb68 (VHH) VHH: QVQLVESGGGSVQAGGSLRLSCAASGSISSITYLGWFRQAPGKEREGVAALITVNGHTYYADSVKGRFTVSLDNAKNTVYLQMNSLKPEDTALYYCAAAAWGYAWPLHQDDYWYWGQGTQVTVSA | 0.023 s⁻¹ | – |
| Sybody Sb16 (VHH) VHH: QVQLVESGGGLVQAGGSLRLSCAASGFPVAYKTMWWYRQAPGKEREWVAAIESYGIKWTRYADSVKGRFTISRDNAKNTVYLQMNSLKPEDTAVYYCIVWVGAQYHGQGTQVTVSA | 0.02 s⁻¹ | 40.6 nM |
| Sybody Sb14 (VHH) VHH: QVQLVESGGGLVQAGGSLRLSCAASGFPVQAREMEWYRQAPGKEREWVAAIKSTGTYTAYAYSVKGRFTISRDNAKNTVYLQMNSLKPEDTAVYYCYVYVGSSYIGQGTQVTVSA | 0.007 s⁻¹ | 13.8 nM |
| Sybody Sb15 (VHH) VHH: QVQLVESGGGLVQAGGSLRLSCAASGFPVKNFEMEWYRKAPGKEREWVAAIQSGGVETYYADSVKGRFTISRDNAKNTVYLQMNSLKPEDTAVYYCFVYVGRSYIGQGTQVTVS | 0.011 s⁻¹ | – |
